B1: M46: G1 variant: L1 R28N; L2 G50A,L56T; H2 E54K,A57N,S58E,H61F; HC-FW3 L99T,A100V (antibody, V domains shown)
VH: EVQLVESGGGLVQPGGSLRLSCAASGFTFSNYWISWVRQAPGKGLEWVAEIRSKSDNEATFYAEAVKGRFTISRDNAKNSLYLQMNSLRAEDTAVYYCTVYFDYGLAIQNYWGQGTLVTVSS
VL: EIVLTQSPATLSLSPGERATLSCKASKNVTTYVSWYQQKPGQAPRLLIYAASNRYTGIPARFSGSGSGTDFTLTISSLEPEDFAVYYCSQSYNYPYTFGQGTKLEIK
B2: M66: G1 variant: L1 R28N,T30G; L2 L56I; H2 E54K,A57E; HC-FW3 L99T,A100V (antibody, V domains shown)
VH: B1 VH with N57E, E58S, F61H
VL: B1 VL with T30G, A50G, T56I
B3: M47: G1 variant: L1 R28N; L2 G50A,L56T; H2 E54K,A57N,S58G; HC-FW3 L99T,A100V (antibody, V domains shown)
VH: B1 VH with E58G, F61H
VL: B1 VL
B4: M48: G1 variant: L1 R28N; L2 G50A,L56T; H2 E54K,A57N,S58L; HC-FW3 L99T,A100V (antibody, V domains shown)
VH: B1 VH with E58L, F61H
VL: B1 VL
B5: M64: G1 variant: L1 R28N,T30G; L2 G50A; H2 E54K,A57N,S58V; HC-FW3 L99T,A100V (antibody, V domains shown)
VH: B1 VH with E58V, F61H
VL: B1 VL with T30G, T56L
B6: M56: G1 variant: L1 R28N,T30D; L2 L56S; H2 E54K,A57N,H61F; HC-FW3 L99T,A100V (antibody, V domains shown)
VH: B1 VH with E58S
VL: B1 VL with T30D, A50G, T56S
B7: M57: G1 variant: L1 R28N,T30D; L2 L56S; H2 E54K,A57N,S58E; HC-FW3 L99T,A100V (antibody, V domains shown)
VH: B1 VH with F61H
VL: B1 VL with T30D, A50G, T56S
B8: M54: G1 variant: L1 R28N,T30A; L2 G50A; H2 E54K,A57N,S58P; HC-FW3 L99T,A100V (antibody, V domains shown)
VH: B1 VH with E58P, F61H
VL: B1 VL with T30A, T56L
B9: M62: G1 variant: L1 R28N,T30G; L2 A51H,L56T; H2 E54K,A57N,S58E; HC-FW3 L99T,A100V (antibody, V domains shown)
VH: B1 VH with F61H
VL: B1 VL with T30G, A50G, A51H
B10: M50: G1 variant: L1 R28N; L2 G50A,L56T; H2 E54K,A57R; HC-FW3 L99T,A100V (antibody, V domains shown)
VH: B1 VH with N57R, E58S, F61H
VL: B1 VL
B11: M51: G1 variant: L1 R28N; L2 L56I; H2 E54K,A57G; HC-FW3 L99T,A100V (antibody, V domains shown)
VH: B1 VH with N57G, E58S, F61H
VL: B1 VL with A50G, T56I
B12: M61: G1 variant: L1 R28N,T30G; L2 A51H; H2 E54Q,A57N,H61F; HC-FW3 L99T,A100V (antibody, V domains shown)
VH: B1 VH with K54Q, E58S
VL: B1 VL with T30G, A50G, A51H, T56L
B13: M60: G1 variant: L1 R28N,T30D; L2 L56S; H2 E54K,A57N,S58R,H61F; HC-FW3 L99T,A100V (antibody, V domains shown)
VH: B1 VH with E58R
VL: B1 VL with T30D, A50G, T56S
B14: M58: G1 variant: L1 R28N,T30D; L2 L56S; H2 E54K,A57N,S58I,H61F; HC-FW3 L99T,A100V (antibody, V domains shown)
VH: B1 VH with E58I
VL: B1 VL with T30D, A50G, T56S
B15: M55: G1 variant: L1 R28N,T30A; L2 L56S; H2 E54K,A57N,S58E,E64D; HC-FW3 L99T,A100V (antibody, V domains shown)
VH: B1 VH with F61H, E64D
VL: B1 VL with T30A, A50G, T56S
B16: M53: G1 variant: L1 R28N; L2 L56I; H2 E54K,A57N,S58G; HC-FW3 L99T,A100V (antibody, V domains shown)
VH: B1 VH with E58G, F61H
VL: B1 VL with A50G, T56I
B17: M63: G1 variant: L1 R28N,T30G; L2 G50A; H2 E54K,A57N,S58T; HC-FW3 L99T,A100V (antibody, V domains shown)
VH: B1 VH with E58T, F61H
VL: B1 VL with T30G, T56L
B18: M52: G1 variant: L1 R28N; L2 L56I; H2 E54K,A57N,S58A; HC-FW3 L99T,A100V (antibody, V domains shown)
VH: B1 VH with E58A, F61H
VL: B1 VL with A50G, T56I
B19: M49: G1 variant: L1 R28N; L2 G50A,L56T; H2 E54K,A57N,S58Y,H61F; HC-FW3 L99T,A100V (antibody, V domains shown)
VH: B1 VH with E58Y
VL: B1 VL
B20: M59: G1 variant: L1 R28N,T30D; L2 L56S; H2 E54K,A57N,S58N,H61F; HC-FW3 L99T,A100V (antibody, V domains shown)
VH: B1 VH with E58N
VL: B1 VL with T30D, A50G, T56S
B21: M65: G1 variant: L1 R28N,T30G; L2 G50A,L56I; H2 E54K,A57C; HC-FW3 L99T,A100V (antibody, V domains shown)
VH: B1 VH with N57C, E58S, F61H
VL: B1 VL with T30G, T56I

Substitutions are numbered along the chain they refer to. In names and notes the source's numbering stands.

For the first assay, the target named is T1, human α-CGRP (Homo sapiens, UniProt P06881).
T1 construct: 1-37 (WT); purchased; host or cells: synthetic peptide
T1 sequence (P06881 83-119 limits assumed): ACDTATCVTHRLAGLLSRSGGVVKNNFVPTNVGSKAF
Description: Biacore affinity of antibody G1 Fab and variants to human α-CGRP. It counts as binding. The settings on record: 37° C., Fab, screening mode unless underlined. The procedure:
(§1) Biacore assay for affinity determination. […] All Biacore assays were conducted in HBS-EP running buffer (10 mM HEPES pH 7.4, 150 mM NaCl, 3 mM EDTA, 0.005% v/v polysorbate P20). CGRP surfaces were prepared by diluting the N-biotinylated CGRP to a concentration of less than 0.001 mg/mL into HBS-EP buffer and injecting it across the SA sensor chip using variable contact times. Low capacity surfaces, corresponding to capture levels <50 response units (RU) were used for high-resolution kinetic studies, whereas high capacity surfaces (about 800 RU of captured CGRP) were used for concentration studies, screening, and solution affinity determinations. […] Samples were typically injected for lminute at 100 μL/min and dissociation times of at least 10 minutes were allowed. After each binding cycle, surfaces were regenerated with 25 mM NaOH in 25% v/v ethanol, which was tolerated over hundreds of cycles. An entire titration series (typically generated in duplicate) was fit globally to a 1:1 Langmuir binding model using the BlAevaluation program. This returned a unique pair of association and dissociation kinetic rate constants (respectively, kon and koff) for each binding interaction, whose ratio gave the equilibrium dissociation constant (KD=koff/[…]).
(§2) High-resolution analysis of binding interactions with extremely slow offrates. […] The protocol described above was used with the following modifications. The association rate constant (kon) was determined by injecting a 2-fold titration series (in duplicate) spanning 550 nM-1 nM for 30 seconds at 100 μL/min and allowing only a 30 second dissociation phase. The dissociation rate constant (koff) was determined by injecting three concentrations (high, medium, and low) of the same titration series in duplicate for 30 seconds and allowing a 2-hour dissociation phase. The affinity (KD) of each interaction was obtained by combining the kon and koff values obtained in both types of experiments, as shown in Table 4.
(§3) The binding affinities of Fab fragments were determined by Biacore by flowing them across CGRPs on a SA chip.
Consider B1, for which the α-human koff stood at 0.000539 s⁻¹.
B2 had a α-human koff of 0.00052 s⁻¹.
For B3, the α-human koff is 0.000332 s⁻¹.
In the case of B4, the α-human koff stood at 0.000842 s⁻¹.
B5 showed a α-human koff of 0.00132 s⁻¹.
Same read-out and setting: next, B6: 0.000479 s⁻¹; B7: 0.000322 s⁻¹.
Regarding B8, the α-human koff was found to be 0.00179 s⁻¹.
In turn, B9 gave a α-human koff of 0.000557 s⁻¹.
On the same count and under the same terms, next, B10: 0.000406 s⁻¹; B11: 0.000131 s⁻¹.
Molecule B12 displayed a α-human koff of 0.000459 s⁻¹.
The molecule B13 showed a α-human koff of 0.000911 s⁻¹.
Take B14: the α-human koff was 0.00195 s⁻¹.
As for B15, the α-human koff is 0.000478 s⁻¹.
In the case of B16, the α-human koff is 0.000374 s⁻¹.
Consider B17, for which the α-human koff was found to be 0.0015 s⁻¹.
Turning to B18, the α-human koff amounted to 0.000281 s⁻¹.
Regarding B19, the α-human koff is 0.000595 s⁻¹.
Turning to B20, the α-human koff was determined as 0.000524 s⁻¹.
On to B21, for which the α-human koff turned out to be 0.000803 s⁻¹.

Another assay concerns the target T2, rat α-CGRP (Rattus norvegicus, UniProt P01256).
T2 construct: rat α (1-37); host or cells: synthetic peptide
T2 sequence (P01256 83-119 limits assumed): T1 sequence (P06881 83-119 limits assumed) with A1S, D3N, N25D, K35E
Description: Biacore affinity of antibody G1 Fab and variants to rat α-CGRP. It is filed as binding. Conditions: 37° C., Fab, screening mode unless underlined. As to the method:
as §1, §2, §3
B1 displayed a α-rat koff of 0.00294 s⁻¹.
On the same count and under the same terms, next, B2: 0.00511 s⁻¹.
On to B3, for which the α-rat koff was 0.00823 s⁻¹.
The molecule B4 registered a α-rat koff of 0.0343 s⁻¹.
In turn, B5 returned a α-rat koff of 0.0234 s⁻¹.
On the same count and under the same terms, next, B6: 0.00935 s⁻¹; B7: 0.0104 s⁻¹.
In turn, B8 yielded a α-rat koff of 0.00216 s⁻¹.
B9 came in with a α-rat koff of 0.00575 s⁻¹.
B10 had a α-rat koff of 0.0053 s⁻¹.
The same measure, in the same setting: next, B11: 0.00118 s⁻¹.
B12 yielded a α-rat koff of 0.00521 s⁻¹.
B13 yielded a α-rat koff of 0.0272 s⁻¹.
Turning to B14, the α-rat koff result was “No binding”.
The molecule B15 yielded a α-rat koff of 0.00585 s⁻¹.
For the molecule B16, the α-rat koff stood at 0.00191 s⁻¹.
B17 gave a α-rat koff of 0.00265 s⁻¹.
Turning to B18, the α-rat koff was determined as 0.00229 s⁻¹.
In the case of B19, the α-rat koff is 0.0148 s⁻¹.
The molecule B20 showed a α-rat koff of 0.0123 s⁻¹.
For the molecule B21, the α-rat koff turned out to be 0.00407 s⁻¹.

Source of the values: patent US10766952B2, “Methods for reducing migraine frequency in a subject in need thereof” (Beth Israel Deaconess Medical Center, Inc., priority 2017, dated 2020).
